Measured values as given in the supplement of paper PMC12042874.
± gives the uncertainty stated by the source.

Experiment: amyloid nucleation score (Sup35N fusion, yeast selection) (log enrichment); library NNK2; higher = more nucleation; inactive = no reads after selection
Method in brief: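 The nucleation score is a DiMSum log enrichment of output over input reads, centred on the mode score of non-aggregating sequences. Sequences under 100 input reads were excluded, and reads came from Illumina sequencing of plasmid inserts. Psi-negative yeast expressing Sup35N fused to peptides of 20 random codons were induced with 100 μM copper sulfate for 24 hours and grown 7 days at 30°C on medium lacking adenine and uracil. Random libraries had three technical output replicates.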

Substance | amyloid nucleation score
DGCDNYDSRESKTLFMRMMW | 1.11 ± 0.43
DGIDTCGMCL | -0.096 ± 0.63
DGNNVVIWLLWLSANMTGAG | 1.97 ± 0.13
DGSSDRQGVKFFVDTSFLSR | -0.593 ± 0.48
DGTNFDR | -0.92 ± 0.37
DHAGWCSDRWVTDFDFAMGN | 0.829 ± 0.5
DICAIIVHWCDDLNVAYWYL | 0.058 ± 1
DIKAWLFVRSDIVDGGFADT | -0.405 ± 0.29
DIMAAIYMDG | 0.715 ± 0.43
DINVCRVYEY | -0.011 ± 1.1
DIPTMVNGILYFTGYDPRVS | -0.647 ± 1.1
DIRIL | -0.635 ± 0.44
DISVRTMFVS | -0.392 ± 0.48
DISVYSDFVLSFICADVHPS | 5.02 ± 0.04
DISWYCGDHGSVVVECRNDL | 2.63 ± 0.069
DKKMVTTPTMPDK | 0.977 ± 0.2
DKLLMVSIFFSDSMTSLS | inactive
DKWLWEL | 0.575 ± 0.32
DLDRPYRDIFGTT | inactive
DLIMETYHLVSKCTFCGIEN | 6.473 ± 0.06
DLKYLGLA | -0.535 ± 0.53
DLVMVSVSADVHSSNS | 0.163 ± 0.5
DLWGTMKFNF | inactive
DLWRLMEIFMRSMRWHGITT | -0.456 ± 0.32
DLWTAWSRLHLDGG | 0.431 ± 0.23
DLYPENFASMRFRVTTSLVF | inactive

Substance | amyloid nucleation score
DLYSHSFNLHGYSMRVCYNE | 0.147 ± 0.65
DLYWSMLLYVMSRVYE | 0.249 ± 0.64
DMFIVYSSLYRSFLIFESLH | -2.42 ± 0.75
DMGVFSLLDNK | 0.579 ± 0.66
DMLEKKE | 5.921 ± 0.059
DMQGRVVRR | -0.855 ± 0.61
DMYDLASRSKRELF | inactive
DNCIDSCCYPLVSRVLEL | 0.354 ± 0.64
DNCSLPSGTMGSDNSGGRIQ | -0.444 ± 0.32
DNCVIRALQRRNVLVV | -1.18 ± 0.39
DNGNWVCWLHVLGQGSHRKA | inactive
DNLVCCSCSHLIVWTLSVGA | 9.548 ± 0.035
DNMSNYSGACLSNYL | -0.292 ± 0.56
DNMWV | 0.388 ± 0.54
DNWVLYNCFTTSEKLSM | 0.553 ± 0.19
DRACPYLWVPLRLRGLDTII | -1.32 ± 0.44
DRAWQFPGDRAINGVRSAFF | -1.04 ± 0.63
DRLGSRERDG | 0.74 ± 0.2
DRLVGVTLYSTVYSDYSSSG | -0.768 ± 1.1
DRNMRNLEIISVH | -0.091 ± 0.23
DRNYVQNSSTKMHYWASFLT | 1.71 ± 0.17
DSDHIYNRERQVIFGG | -0.607 ± 0.5
DSDSFYIMPMVHMPNNFHRD | -1.41 ± 1.1
DSFLTLTCGFRSNALYCWGV | -0.663 ± 0.55
DSGLVLNAGIIGSV | -1.11 ± 0.49
DSGRA | -0.351 ± 0.63

Substance | amyloid nucleation score
DSNDRWVW | -0.409 ± 0.76
DSNMRMIA | 0.448 ± 0.6
DSPRRTFIVQASHFTVYLTR | 8.111 ± 0.058
DSRCDRAPDCGMNHCIYILC | 6.76 ± 0.082
DSVFNMTIADECFG | -1.06 ± 1.1
DTCYVTTYVWWKTLCPVGLV | 1.72 ± 0.31
DTGNPVVWKRTVNCLSQVLW | 0.368 ± 0.62
DTGRFVMLVVGR | 0.304 ± 0.54
DTQGIR | -0.212 ± 0.65
DTSSYKTYDRLHQLYRNELR | 0.709 ± 0.23
DTSVMCFGTYTWLFELFFQW | -0.334 ± 0.45
DTVNWCDSGVP | -0.023 ± 0.65
DVDFRSMCEGTFSLNDQPNR | -0.825 ± 0.78
DVEHPLYWPEDVLKASSETV | 1.91 ± 0.12
DVFVRSRGKGRFMGSRDNWA | 0.76 ± 0.4
DVHRWKIWQASG | 0.901 ± 0.26
DVLALFYSYCALN | 0.049 ± 1.1
DVLCS | 0.626 ± 0.57
DVLIRKWIIWDASNLQWMAI | 0.144 ± 0.36
DVSSPVPGRGQCCVDGCWEF | 6.153 ± 0.059
DVVFFVSYW | 3.86 ± 0.098
DVVILMF | 0.639 ± 0.5
DWCPTCIWRICSHVTQSWSS | 6.325 ± 0.055
DWQCRGLQYQWFGGVWDANV | -0.882 ± 0.64
EAHGSWL | 0.764 ± 0.38
EALKVWERLCRLCSFWSYRK | 7.871 ± 0.039

Substance | amyloid nucleation score
EAYLDCYRLLFWFLFM | inactive
ECSGEHASVQVSTGLGTDVQ | 2.8 ± 0.065
EEMYRSIARNVVVLNRYCES | -0.468 ± 0.26
EEYCSFKLVHMGRGPAGHSI | 2.58 ± 0.11
EFCMEDQSMSLLWDYY | -0.183 ± 1
EFFFRLMTDPTN | -0.376 ± 0.63
EFFISVSLNWCKTDCYTDPW | -0.407 ± 0.2
EFGDQLSDYNWIVCMLGTYI | -0.904 ± 1.1
EFIAISLSFVPLYRVVSGSG | -0.674 ± 0.79
EFLLNMAYSSGGSWTEVFRV | -0.005 ± 0.63
EFMYGKTARGWFLALTARIF | inactive
EFNCYGWKRRKRRCWGGKCR | 0.726 ± 0.41
EFRGWNI | -0.587 ± 0.79
EFWPKELIRSDDSASFNGMS | 0.007 ± 1.1
EFYFSVRPVKLCFGLNVTNN | -0.146 ± 1
EFYPTHDFVQRDRRVTRLRI | 0.524 ± 0.81
EGFMSFPTN | inactive
EGNYFSGIS | -1.2 ± 0.48
EGVVSVRVFKYTGSYG | 0.599 ± 0.8
EGWTWGGRLNKAQILTECVL | 1.49 ± 0.38
EIDQSYVNTSSQQTSIYV | inactive
EIHCPMITMISVGRDSMKFN | 0.996 ± 0.41
EINGY | -0.418 ± 1
EKLRNQFKP | -0.569 ± 1.1
ELQGYSNCGLEIGGTCHRGY | -0.302 ± 0.61
ELRPIHIFKFFT | -0.253 ± 0.4

Substance | amyloid nucleation score
ELSLTCNGDQLIGMKGGADK | 0.008 ± 0.38
EMDNGDSGTVW | -0.186 ± 0.76
EMNFKALLKGVNGFVWDGVF | 1.43 ± 0.21
ENFRGTFKIRRRCCL | -0.251 ± 0.76
ENGIICR | 0.088 ± 0.49
ENHQCGWGLPLCTVVSR | 6 ± 0.077
ENKPTRDLYSTTR | -1.19 ± 0.54
ENVCCGVGSVYKSMLAAPPW | 10.23 ± 0.056
EPGMKSRSNYMHGTKGEHHR | -0.131 ± 0.45
EQHIDSAMENFSDHDIVMLG | 4.76 ± 0.064
ERHNAELRHPAQYLEFTTLG | 1.38 ± 0.37
ERSCSDIAGYPRPHGVQRNA | 3.01 ± 0.081
ESDSWNVVITDM | -0.371 ± 0.64
ESFVRVLSFFCVSWYGSMVR | 1.75 ± 0.24
ESIYLVGICGSSG | 0.247 ± 1
ETAQLWYSRVACCKKRVVYG | 0.594 ± 0.47
ETKWPDHYK | 0.515 ± 0.64
ETSMYVYLGI | -0.384 ± 0.35
ETVGYN | 0.284 ± 1.1
EVANGKFCNFGSLYDLMWWE | -0.348 ± 0.76
EVCMWIPHTAVRLYQS | 1.15 ± 0.23
EVEWAFTYHISL | -0.095 ± 0.39
EVGVEGEIF | -0.56 ± 0.4
EVHHNGM | 0.367 ± 0.62
EVILTLIRYNV | 4.21 ± 0.1
EVLGLV | -0.841 ± 0.64

Substance | amyloid nucleation score
EVRRCGEEFGNGARMRWMGV | 0.923 ± 0.28
EWLAVYVYLHQDGLNNFRS | -0.784 ± 0.4
EWLIAW | 1.29 ± 0.25
EWSVWRSAKWQFQARNGMQG | 2.05 ± 0.48
EYHFCTWFRVDIPFVFHDVV | -0.072 ± 1.1
EYIYTIGYGL | inactive
EYMYYGFYCHYGSSVLAF | -0.731 ± 0.56
FACRWFQSWSLRYLFPELTL | -0.238 ± 0.5
FAFWGVSI | 0.332 ± 0.24
FAGNAHGRRTG | 1.3 ± 0.31
FAKFQGSKISPVSHTSLLST | inactive
FALHGEDWSNSTISRNFWSR | -0.031 ± 0.35
FALNPAESLHIRYIGLALF | -1.02 ± 0.62
FAMDSIKRFFKIIIFSRYT | -1.34 ± 1.1
FAMNSVSFSAGNFTDSVPWW | -0.666 ± 0.63
FARKMIGLPLLYLLGVMFGR | -0.877 ± 0.78
FASLCTW | -0.211 ± 0.46
FAVFPLVPGRGPGLFENNRW | -0.104 ± 0.74
FAWNMLS | 0.285 ± 0.74
FAYLPSTVVGVSHSTLGPLI | 0.221 ± 0.43
FCAQITPHRISWLWWQINRQ | -0.304 ± 1.1
FCCFRVYVDMENLSNSALTL | 7.557 ± 0.033
FCLFW | inactive
FCLGRMLARPRRTCYTDENM | -0.126 ± 0.49
FCLVY | 0.744 ± 0.19
FCMFSNIYVFPSTIF | 7.583 ± 0.02

Substance | amyloid nucleation score
FCNLN | -0.02 ± 0.28
FCRSVILSVQMLFKYAIYRF | -1.37 ± 1.1
FCRWSVTFNFRSMIGPGS | 5.344 ± 0.035
FCSTTAICYKGEKQ | 3.47 ± 0.14
FCTHPSFGTVMGMRAETGLD | 0.516 ± 0.81
FCVAGQLLVS | 0.228 ± 0.25
FCWRNCLNVIDTF | -1.22 ± 0.35
FDKRS | inactive
FDNRNVSVSYPYNKMGNRVM | 2.57 ± 0.069
FDQTFEDWWPAYNHSRFNQH | 0.352 ± 0.51
FDYFF | inactive
FDYKSKKGRNNDWRTVCCVM | 2.21 ± 0.16
FDYVLSGICIPLKSIGVSFG | 8.385 ± 0.053
FDYVMFSDIVWSYTKNDALM | -0.111 ± 0.63
FEAINMSQQCIYCFPMSRNI | 7.388 ± 0.053
FEFMNDFQSYVRMFRCLVFL | -0.401 ± 0.43
FEFTTCQGDRRSCFDGWGGN | 2.19 ± 0.15
FENYYGSHGDFGVYDKFNHL | inactive
FFDYLANFCLSKHGNNNYPF | -0.97 ± 1.1
FFEMFGCHMFLLMAYLTI | 0.164 ± 0.63
